± gives the uncertainty stated by the source.
Experiment: self-splicing fitness, log relative to wild type (ln ratio); higher = more splicing; Tetrahymena group I intron in knt gene, E. coli kanamycin selection, DiMSum; sequences stand for … in CUCUCU…GGAGGGAAAAGUUAUCAGGCAUGCACCUGGUAGCUAGUCUUUAAACCAAUAGAUUGCAUCGGUUUAAAAGGCAAGACCGUCAAAUUGCGGGAAAGGGGUCAACAGCCGUUCAGUACCAAGUCUCAGGGGAAACUUUGAGAUGGCCUUGCAAAGGGUAUGGUAAUAAGCUGACGGACAUGGUCCUAACCACGCAGCCAAGUCCUAAGUCAACAGAUCUUCUGUUGAUAUGGAUGCAGUUCACAGACUAAAUGUCGGUCGGGGAAGAUGUAUUCUUCUCAUAAGAUAUAGUCGGACCUCUCCUUAAUGGGAGCUAGCGGAUGAAGUGAUGCAACACUGGAGCCGCUGGGAACUAAUUUGUAUGCGAAAGUAUAUUGAUUAGUUUUGGAGUACUCGUGGUCG
Procedure, shortened: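 Six replicate transformations of E. coli BL21(DE3) with a pET-22b(+) library were grown overnight at 37°C or 30°C. The library randomised all eight P1ex-region intron nucleotides, the intron lying in the knt kanamycin-resistance gene, and plates were LB agar with or without 25 μg/mL kanamycin plus 100 μg/mL carbenicillin, 50 μM IPTG and 0.2% rhamnose. Pooled colonies were amplicon-sequenced on an Illumina HiSeq 2500, and fitness is the DiMSum error-weighted combination of wild-type-normalised replicate fold changes, kanamycin versus none.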

| Sequence | self-splicing fitness (ln) (30 °C) | self-splicing fitness (ln) (37 °C) |
| --- | --- | --- |
| GUCAAGCAAUAUUACGCUCA | -1.42 ± 0.11 | -0.0833 ± 0.13 |
| GUCAAGCAAUAUUACGGACG | -3.64 ± 0.27 | -2.01 ± 0.13 |
| GUCAAGCAAUAUUACGGAGG | – | -2.5 ± 0.25 |
| GUCAAGCAAUAUUACGGAGU | -2.1 ± 0.12 | -0.536 ± 0.12 |
| GUCAAGCAAUAUUACGGAUU | -2.73 ± 0.12 | -1.12 ± 0.12 |
| GUCAAGCAAUAUUACGGCCU | -3.17 ± 0.22 | -1.34 ± 0.21 |
| GUCAAGCAAUAUUACGGGAA | -3.1 ± 0.19 | -0.398 ± 0.12 |
| GUCAAGCAAUAUUACGGGAC | -2.81 ± 0.5 | – |
| GUCAAGCAAUAUUACGGUCC | -2.23 ± 0.27 | -1.09 ± 0.25 |
| GUCAAGCAAUAUUACGGUUG | -5.24 ± 0.39 | -3.24 ± 0.21 |
| GUCAAGCAAUAUUACGUACU | -1.98 ± 0.13 | -0.175 ± 0.12 |
| GUCAAGCAAUAUUACGUCAA | -2.48 ± 0.1 | -1.87 ± 0.11 |
| GUCAAGCAAUAUUACGUCUU | -2.96 ± 0.071 | -1.58 ± 0.066 |
| GUCAAGCAAUAUUACGUUCA | -1.13 ± 0.1 | -0.987 ± 0.16 |
| GUCAAGCAAUAUUACGUUGC | -5.11 ± 0.34 | -2.28 ± 0.21 |
| GUCAAGCAAUAUUACGUUUC | -2.79 ± 0.13 | -2.39 ± 0.16 |
| GUCCAGCAAUAUUACGACGA | -2.69 ± 0.12 | -0.712 ± 0.091 |
| GUCCAGCAAUAUUACGACGC | -0.776 ± 0.094 | 0.435 ± 0.12 |
| GUCCAGCAAUAUUACGACUU | -1.65 ± 0.078 | -0.203 ± 0.085 |
| GUCCAGCAAUAUUACGAGUG | -2.52 ± 0.11 | -1.59 ± 0.1 |
| GUCCAGCAAUAUUACGAUAA | -1.3 ± 0.087 | -0.506 ± 0.11 |
| GUCCAGCAAUAUUACGAUGC | -0.013 ± 0.081 | 0.389 ± 0.1 |
| GUCCAGCAAUAUUACGCAUC | -0.179 ± 0.089 | 0.142 ± 0.12 |
| GUCCAGCAAUAUUACGCAUG | -2.14 ± 0.079 | -1.66 ± 0.082 |
| GUCCAGCAAUAUUACGCAUU | -0.492 ± 0.053 | 0.587 ± 0.073 |
| GUCCAGCAAUAUUACGCCCA | 0.224 ± 0.26 | -0.451 ± 0.21 |
| GUCCAGCAAUAUUACGCCGC | -4.18 ± 0.33 | -2.58 ± 0.27 |

| Sequence | self-splicing fitness (ln) (30 °C) | self-splicing fitness (ln) (37 °C) |
| --- | --- | --- |
| GUCCAGCAAUAUUACGCCUG | -2.5 ± 0.2 | -0.12 ± 0.21 |
| GUCCAGCAAUAUUACGCGCU | -2.67 ± 0.25 | -2.51 ± 0.31 |
| GUCCAGCAAUAUUACGGACG | -2.99 ± 0.26 | -0.833 ± 0.18 |
| GUCCAGCAAUAUUACGGACU | -3.74 ± 0.29 | -3.05 ± 0.4 |
| GUCCAGCAAUAUUACGGCGU | -0.257 ± 0.078 | 0.0026 ± 0.099 |
| GUCCAGCAAUAUUACGGGGC | -4.08 ± 0.27 | -1.8 ± 0.2 |
| GUCCAGCAAUAUUACGGUGC | -0.903 ± 0.059 | -0.726 ± 0.071 |
| GUCCAGCAAUAUUACGUAAG | -0.607 ± 0.071 | -0.277 ± 0.11 |
| GUCCAGCAAUAUUACGUAAU | -0.156 ± 0.07 | 0.76 ± 0.081 |
| GUCCAGCAAUAUUACGUACC | -1.08 ± 0.15 | -1.74 ± 0.24 |
| GUCCAGCAAUAUUACGUAGG | -2.31 ± 0.13 | -1.84 ± 0.15 |
| GUCCAGCAAUAUUACGUAUG | -2.76 ± 0.1 | -1.06 ± 0.11 |
| GUCGAGCAAUAUUACGAGCU | -2 ± 0.42 | – |
| GUCGAGCAAUAUUACGAGUA | -2.24 ± 0.45 | -1.13 ± 0.25 |
| GUCGAGCAAUAUUACGAUAA | -1.44 ± 0.26 | -0.0833 ± 0.2 |
| GUCGAGCAAUAUUACGAUAG | -4.14 ± 0.47 | – |
| GUCGAGCAAUAUUACGAUCA | -1 ± 0.19 | -0.515 ± 0.21 |
| GUCGAGCAAUAUUACGAUUG | -4.1 ± 0.33 | -3.26 ± 0.26 |
| GUCGAGCAAUAUUACGCCCU | – | -0.627 ± 0.41 |
| GUCGAGCAAUAUUACGCGCC | -2.74 ± 0.24 | -1.87 ± 0.42 |
| GUCGAGCAAUAUUACGCUAG | -3.53 ± 0.21 | -1.93 ± 0.15 |
| GUCGAGCAAUAUUACGCUAU | -2.01 ± 0.12 | -1.36 ± 0.12 |
| GUCGAGCAAUAUUACGCUCG | -1.76 ± 0.37 | – |
| GUCGAGCAAUAUUACGCUUA | -1.12 ± 0.13 | -0.065 ± 0.12 |
| GUCGAGCAAUAUUACGCUUG | – | -2.36 ± 0.33 |
| GUCGAGCAAUAUUACGGAAU | -2.48 ± 0.16 | -1.12 ± 0.14 |
| GUCGAGCAAUAUUACGGAGC | -2.93 ± 0.2 | -1.24 ± 0.15 |

| Sequence | self-splicing fitness (ln) (30 °C) | self-splicing fitness (ln) (37 °C) |
| --- | --- | --- |
| GUCGAGCAAUAUUACGGCAG | – | -2.81 ± 0.44 |
| GUCGAGCAAUAUUACGGGAA | -2.39 ± 0.34 | -1.63 ± 0.37 |
| GUCGAGCAAUAUUACGGGCG | -2.88 ± 0.11 | -1.36 ± 0.12 |
| GUCGAGCAAUAUUACGGGGC | – | -1.57 ± 0.28 |
| GUCGAGCAAUAUUACGUGGU | -3.5 ± 0.19 | -2.8 ± 0.19 |
| GUCGAGCAAUAUUACGUUUC | -2.08 ± 0.21 | -1.88 ± 0.2 |
| GUCUAGCAAUAUUACGAAGA | -3.16 ± 0.24 | -2.24 ± 0.2 |
| GUCUAGCAAUAUUACGAAGC | -1.58 ± 0.18 | -0.814 ± 0.18 |
| GUCUAGCAAUAUUACGAAUU | -1.29 ± 0.077 | -0.287 ± 0.098 |
| GUCUAGCAAUAUUACGAGAU | -3.31 ± 0.26 | -2.32 ± 0.22 |
| GUCUAGCAAUAUUACGAGUC | -1.93 ± 0.11 | -1.88 ± 0.093 |
| GUCUAGCAAUAUUACGCAAC | -1.33 ± 0.087 | -0.643 ± 0.095 |
| GUCUAGCAAUAUUACGCCGG | -3.17 ± 0.33 | -2.31 ± 0.33 |
| GUCUAGCAAUAUUACGCGGC | – | -2.87 ± 0.4 |
| GUCUAGCAAUAUUACGCUAU | -1.54 ± 0.11 | -0.228 ± 0.1 |
| GUCUAGCAAUAUUACGCUUC | -1.25 ± 0.11 | -0.47 ± 0.12 |
| GUCUAGCAAUAUUACGGAAA | -0.658 ± 0.12 | -0.44 ± 0.12 |
| GUCUAGCAAUAUUACGGGCA | -3.1 ± 0.44 | -1.43 ± 0.21 |
| GUCUAGCAAUAUUACGGGGG | -2.58 ± 0.33 | -1.46 ± 0.17 |
| GUCUAGCAAUAUUACGGUUA | -0.904 ± 0.15 | -0.443 ± 0.13 |
| GUCUAGCAAUAUUACGUGAA | -0.302 ± 0.1 | 0.449 ± 0.097 |
| GUCUAGCAAUAUUACGUGCC | -1.54 ± 0.24 | -0.468 ± 0.28 |
| GUCUAGCAAUAUUACGUUUC | -0.78 ± 0.057 | -0.0328 ± 0.073 |
| GUGAAGCAAUAUUACGAAAC | -1.66 ± 0.11 | -0.943 ± 0.14 |
| GUGAAGCAAUAUUACGACUA | -0.0623 ± 0.096 | 0.462 ± 0.14 |

Source: the supplement of paper PMC7877785
